Test results published in publication PMC6363164 (2019).

Molecular target: Rab7-RILP complex (human, UniProt P51149 2-195; Q96NA2 242-320)
Assay: ITC

Chain of Rab7-RILP complex (P51149 2-195 Q67L, chain 1 of 2): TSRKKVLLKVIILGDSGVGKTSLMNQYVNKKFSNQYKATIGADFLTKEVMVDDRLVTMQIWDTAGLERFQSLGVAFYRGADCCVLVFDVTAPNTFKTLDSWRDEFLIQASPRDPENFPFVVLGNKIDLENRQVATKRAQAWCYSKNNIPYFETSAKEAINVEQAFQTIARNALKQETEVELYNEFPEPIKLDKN
Chain of Rab7-RILP complex (Q96NA2 242-320, chain 2 of 2): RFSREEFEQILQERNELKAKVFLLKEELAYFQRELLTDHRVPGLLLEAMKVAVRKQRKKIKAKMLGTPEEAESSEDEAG

B1: ORP1 ANK (5-233) (protein)
chain: AEQQLLHHARNGNAEEVRQLLETMARNEVIADINCKGRSKSNLGWTPLHLACYFGHRQVVQDLLKAGAEVNVLNDMGDTPLHRAAFTGRKELVMLLLEYNADTTIVNGSGQTAKEVTHAEEIRSMLEAVERTQQRKLEELLLAAAREGKTTELTALLNRPNPPDVNCSDQLGNTPLHCAAYRAHKQCALKLLRSGADPNLKNKNDQKPLDLAQGAEMKHILVGNKVIYK
B1 was tested. Which Kd did it give?
Its Kd is 4.13 µM.
